According to PMC12288907 (JCI Insight, 2025):

How the values were obtained:
Experiment in all cases: ELISA
Details in all cases: both partners purified
[1] = biological target: recombinant soluble trimeric H7 HA of A/Netherlands/219/2003 H7N7 (NL03 H7) (Influenza A virus …, UniProt Q6VMK1, strain)
[2] = biological target: recombinant soluble trimeric H15 HA of A/shearwater/Western Australia/2576/1979 H15N9 (wtWA79 H15) (Influenza A virus A/wedge-tailed …, UniProt Q20ND8, strain)
[3] = biological target: recombinant soluble trimeric H15 HA of A/shearwater/Western Australia/2576/1979 H15N9 (Influenza A virus A/wedge-tailed …, UniProt Q20ND8, strain)
[4] = biological target: recombinant soluble trimeric H7 HA of A/Netherlands/219/2003 H7N7 (Influenza A virus …, UniProt Q6VMK1, strain)

Binder	binding result [1]	binding result [2]	binding result [3]	binding result [4]
recombinant H7-235 IgG1 (rH7-235 IgG1) (antibody, V domains shown, IgG1; also called rH7-235 mAb; mAb H7-235; copies: 2 + 2) VH: QVQLVESGGGVVQPGESLRLSCAASGFAFRTYGMHWVRQAPGKGLEWVGVIWYDGSNKYYGDSVKGRFTISRDNSQNTLYLQMNSLRAEDTAVYYCARNGERWRVEDYYYGMDVWGQGTLVTVSS VL: EIVMTQSPLSLPVTPGEPASISCRSSQSLLHSNAHNYLDWYLQKPGQSPQLLIYLGSNRASGVPDRFSGSGSGTDFTLKISRVEAEDVGIYYCMQALQTPITFGQGTRLEIK	binds	no binding		
rH7-235rev IgG1 (germline revertant form of rH7-235 IgG) (antibody, V domains shown) VH: QVQLVESGGGVVQPGRSLRLSCAASGFTFSSYGMHWVRQAPGKGLEWVAVIWYDGSNKYYADSVKGRFTISRDNSKNTLYLQMNSLRAEDTAVYYCARNGERWRVEDYYYGMDVWGQGTLVTVSS VL: not shown			no binding (tested: >10,000 ng/mL)	no binding (tested: >10,000 ng/mL)
rH7-235 IgG1 (recombinant human monoclonal antibody H7-235) (antibody, V domains shown, also called mAb H7-235; source: Expi293F, transient transfection, purified (MabSelect Sure)) VH: QVQLVESGGGVVQPGESLRLSCAASGFAFRTYGMHWVRQAPGKGLEWVGVIWYDGSNKYYGDSVKGRFTISRDNSQNTLYLQMNSLRAEDTAVYYCARNGERWRVEDYYYGMDVWGQGTLVTVSS VL: EIVMTQSPLSLPVTPGEPASISCRSSQSLLHSNAHNYLDWYLQKPGQSPQLLIYLGSNRASGVPDRFSGSGSGTDFTLKISRVEAEDVGIYYCMQALQTPITFGQGTRLEIK			no binding (tested: >10,000 ng/mL)	
